Ten molecules from US20220016254A1 (BEIJING QL BIOPHARMACEUTICAL, published 2022) can be followed below.

T1: human beta-Klotho (human, UniProt Q86Z14 1-1044)
T1 sequence (looked up): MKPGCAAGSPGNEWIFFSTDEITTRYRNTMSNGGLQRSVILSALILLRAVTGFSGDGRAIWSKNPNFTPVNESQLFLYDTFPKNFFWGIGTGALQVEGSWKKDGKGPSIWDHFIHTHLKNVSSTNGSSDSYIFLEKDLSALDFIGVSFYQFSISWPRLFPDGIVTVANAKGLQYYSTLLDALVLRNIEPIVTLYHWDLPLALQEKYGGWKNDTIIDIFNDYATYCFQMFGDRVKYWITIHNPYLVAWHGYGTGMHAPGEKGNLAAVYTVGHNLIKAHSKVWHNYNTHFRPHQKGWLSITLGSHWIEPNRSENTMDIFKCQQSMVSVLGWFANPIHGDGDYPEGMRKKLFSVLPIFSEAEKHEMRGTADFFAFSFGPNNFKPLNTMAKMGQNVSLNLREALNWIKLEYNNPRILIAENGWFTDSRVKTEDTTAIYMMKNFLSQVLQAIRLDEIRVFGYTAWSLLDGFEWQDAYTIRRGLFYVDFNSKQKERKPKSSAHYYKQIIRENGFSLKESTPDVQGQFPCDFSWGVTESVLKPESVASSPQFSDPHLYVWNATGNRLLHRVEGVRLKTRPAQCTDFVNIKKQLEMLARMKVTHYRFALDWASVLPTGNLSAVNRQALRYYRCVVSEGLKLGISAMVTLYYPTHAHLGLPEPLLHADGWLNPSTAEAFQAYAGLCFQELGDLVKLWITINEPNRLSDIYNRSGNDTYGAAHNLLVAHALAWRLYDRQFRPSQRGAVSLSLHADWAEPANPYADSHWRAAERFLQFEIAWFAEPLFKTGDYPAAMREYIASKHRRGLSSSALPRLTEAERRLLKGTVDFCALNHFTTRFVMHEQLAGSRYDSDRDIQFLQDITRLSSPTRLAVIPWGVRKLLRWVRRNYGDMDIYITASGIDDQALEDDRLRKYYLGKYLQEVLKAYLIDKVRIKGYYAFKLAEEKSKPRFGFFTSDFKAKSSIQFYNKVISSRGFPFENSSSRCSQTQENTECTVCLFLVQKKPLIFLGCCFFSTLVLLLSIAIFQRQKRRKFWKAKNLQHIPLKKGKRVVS

B1: Compound 69 (ligand)
chain: EGTFTSDVSSYLEEQAAKEFIAWLVKGGGGGGGSGGGGSGGGGSGGGGCHPIPDSSPLLQFGGQVRQRYLYTDDAQQTEAHLEIREDGTVGGAADQSPESLLQLKALKPGVIQILGVKTSRFLCQRPDGALYGSLHFDPEACSFRELLLEDGYNVYQSEAHGLPLHLPGQKSPHRDPAPRGPARFLPLPGLPPALPEPPGILAPQPPDVGSSDPLSLVGCSQGRSPSYES
modifications: Moiety B (HOOC-(CH2)20-CO-gGlu-2XADO-EDA-CO-CH2) on 49C and 220C of fusion polypeptide
B2: Compound 71 (ligand)
chain: HGEGTFTSDVSSYLEEQAAKEFIAWLVKGGGGAQPGAQPGAQPGAQPGAQPCQAPGAQPGAQPGAQPGAQPGAQPGAQPGAQPGAQPGAQPGAQPGAQPGAQPGAQPGAQPHPIPDSSPLLQFGGQVRQRYLYTDDAQQTEAHLEIREDGTVGGAADQSPESLLQLKALKPGVIQILGVKTSRFLCQRPDGALYGSLHFDPEACSFRELLLEDGYNVYQSEAHGLPLHLPGQKSPHRDPAPRGPARFLPLPGLPPALPEPPGILAPQPPDVGSSDPLSLVGCSQGRSPSYES
modifications: Moiety B (HOOC-(CH2)20-CO-gGlu-2XADO-EDA-CO-CH2) on 52C and 282C of fusion polypeptide
B3: Compound 72 (ligand)
chain: B2 chain with C52G, Q53A, A54Q, A61Q, Q62C
modifications: Moiety B (HOOC-(CH2)20-CO-gGlu-2XADO-EDA-CO-CH2) on 62C and 282C of fusion polypeptide
B4: Compound 73 (ligand)
chain: B2 chain with A41Q, Q42C, C52G, Q53A, A54Q
modifications: Moiety B (HOOC-(CH2)20-CO-gGlu-2XADO-EDA-CO-CH2) on 42C and 282C of fusion polypeptide
B5: Compound 70 (ligand)
chain: HGEGTFTSDVSSYLEEQAAKEFIAWLVKGGGGGGGSGGGGSGGGGSGGGGCHPIPDSSPLLQFGGQVRQRYLYTDDAQQTEAHLEIREDGTVGGAADQSPESLLQLKALKPGVIQILGVKTSRFLCQRPDGALYGSLHFDPEACSFRELLLEDGYNVYQSEAHGLPLHLPGQKSPHRDPAPRGPARFLPLPGLPPALPEPPGILAPQPPDVGSSDPLSC
modifications: Moiety B (HOOC-(CH2)20-CO-gGlu-2XADO-EDA-CO-CH2) on 51C and 219C of fusion polypeptide
B6: Compound 54 (ligand)
chain: HGEGTFTSDVSSYLEEQAAKEFIAWLVRGGGGGGGSGGGGSGGGGSGGGGCHPIPDSSPLLQFGGQVRQRYLYTDDAQQTEAHLEIREDGTVGGAADQSPESLLQLKALKPGVIQILGVKTSRFLCQRPDGALYGSLHFDPEACSFRELLLEDGYNVYQSEAHGLPLHLPGQKSPHRDPAPRGPARFLPLPGLPPALPEPPGILAPQPPDVGSSDPLSLVGGSQGRSPSYCS
modifications: Moiety B (HOOC-(CH2)20-CO-gGlu-2XADO-EDA-CO-CH2) on 51C and 231C of fusion polypeptide
B7: Compound 63 (ligand)
chain: B6 chain with R28K, G222C, C231E
modifications: Moiety B (HOOC-(CH2)20-CO-gGlu-2XADO-EDA-CO-CH2) on 51C and 222C of fusion polypeptide
B8: Compound 4 (ligand)
chain: B6 chain with K20R, C51K, K107R, K110R, K120R, K173R, C231K
modifications: Moiety A (HOOC-(CH2)16-CO-gGlu-2XADO) on 51K and 231K of fusion polypeptide
B9: Compound 5 (ligand)
chain: B6 chain with K20R, C51K, K107R, K110R, K120R, K173R, G222K, C231A
modifications: Moiety A (HOOC-(CH2)16-CO-gGlu-2XADO) on 51K and 222K of fusion polypeptide
B10: Compound 66 (ligand)
chain: HGEGTFTSDVSSYLEEQAAKEFIAWLVKGGGGSAPGSPAGSPTGSAPGSPCHPIPDSSPLLQFGGQVRQRYLYTDDAQQTEAHLEIREDGTVGGAADQSPESLLQLKALKPGVIQILGVKTSRFLCQRPDGALYGSLHFDPEACSFRELLLEDGYNVYQSEAHGLPLHLPGQKSPHRDPAPRGPARFLPLPGLPPALPEPPGILAPQPPDVGSSDPLSLVGGSQCRSPSYES
modifications: Moiety B (HOOC-(CH2)20-CO-gGlu-2XADO-EDA-CO-CH2) on 51C and 225C of fusion polypeptide

Positions count from the first letter of the chain named.

The first assay has as its target T1, human beta-Klotho. The assay is described as follows: cell-based or functional assay.
On to B1, for which the “FGF21 activity (EC50, nM); p-ERK levels” value stood at 0.53 nM.
Take B2: the “FGF21 activity (EC50, nM); p-ERK levels” value turned out to be 2.7 nM.
Regarding B3, the “FGF21 activity (EC50, nM); p-ERK levels” value was 2.4 nM.
On to B4, for which the “FGF21 activity (EC50, nM); p-ERK levels” value turned out to be 3.6 nM.
As to B5, the “FGF21 activity (EC50, nM); p-ERK levels” value was more than 100 nM.
For the molecule B6, the “FGF21 activity (EC50, nM); p-ERK levels” value amounted to 3.4 nM.
On to B7, for which the “FGF21 activity (EC50, nM); p-ERK levels” value was determined as 1.2 nM.
Consider B8, for which the “FGF21 activity (EC50, nM); p-ERK levels” value was found to be 7.7 nM.
Consider B9, for which the “FGF21 activity (EC50, nM); p-ERK levels” value amounted to 12.9 nM.
As to B10, the “FGF21 activity (EC50, nM); p-ERK levels” value was 1 nM.

The next assay addresses human GLP-1 receptor (human, UniProt P43220 24-463). The assay is described as follows: cell-based or functional assay.
As for B1, the “GLP-1 activity (EC50, pM); CRE luciferase reporter” value (“GLP-1 activity (EC50, pM)” below) is more than 1000 pM.
B2: the “GLP-1 activity (EC50, pM)” value turned out to be 16.5 pM.
The same measure, in the same setting: under B3 stands 16.5 pM; under B4, 16.6 pM; under B5, 24.8 pM.
Regarding B6, the “GLP-1 activity (EC50, pM)” value worked out at 19 pM.
With B7, the “GLP-1 activity (EC50, pM)” value came to 49.1 pM.
Consider B8, for which the “GLP-1 activity (EC50, pM)” value came to 25.1 pM.
On to B9, for which the “GLP-1 activity (EC50, pM)” value was found to be 23.1 pM.
In the case of B10, the “GLP-1 activity (EC50, pM)” value is 41.3 pM.
